Measurements from article PMC8699718, “A structurally conserved site in AUP1 binds the E2 enzyme UBE2G2 and is essential for ER-associated degradation” (PLoS Biology, 2021).

Tested on: NHK (Null Hong Kong variant of alpha1-antitrypsin)
Assay: CHX chase: NHK degradation in HT1080 UBE2G2 KO cells
Format: cell-based, human
Details: re-expression in HT1080 UBE2G2 KO
Protocol: Fig 3 The AUP1–UBE2G2 interaction is required for ERAD. (A) Equimolar amounts of GST-AUP1 (aa 292 to 410) or GST were immobilized on glutathione beads and binding to the indicated in vitro translated ^35S-labeled E2s was assessed. Left panel is 5% of input used for binding. E2s are referred to by their unique alpha-numeric designation (e.g., UBE2G1 and UBE2J1). (B) HT1080 or UBE2G2 KO cells were transfected with INSIG-1-MYC and degradation assessed by CHX chase. […] (D) Cells were transfected with NHK-MYC and HA-ubiquitin and ubiquitination of NHK assessed following proteasome inhibition and IP (right panel). Left panel is 10% of total cell lysate used for IP, indicating no discernable change in total ubiquitination. (E) Levels of endogenous HRD1 were monitored by CHX chase in the indicated cell types. (F) Ubiquitination of endogenous HRD1 was assessed following IP with HRD1 antiserum. Arrow in upper panel indicates migration of unmodified HRD1. […]
Plasmid transfections were carried out using PolyFect (Qiagen, Germantown, MD, USA) or JetPrime (Polyplus, New York, NY, USA) reagents. […] Clarified lysates or immunoprecipitates were denatured by heating in NuPAGE LDS Sample Buffer with β-mercaptoethanol at 70°C for 10 minutes, resolved on Bis-Tris polyacrylamide gels in NuPAGE MES or MOPS SDS running buffer and analyzed by western blotting. […]

B1: UBE2G2: ERAD ubiquitin-conjugating enzyme (E2); purified in vitro, N-terminally MYC-tagged in cells (protein)
chain: MAGTALKRLMAEYKQLTLNPPEGIVAGPMNEENFFEWEALIMGPEDTCFEFGVFPAILSFPLDYPLSPPKMRFTCEMFHPNIYPDGRVCISILHAPGDDPMGYESSAERWSPVQSVEKILLSVVSMLAEPNDESGANVDASKMWRDDREQFYKIAKQIVQKSLGL
NHK degradation in UBE2G2 KO cells: restored NHK degradation
